Measurements reported in paper PMC5606203.

Experiments:
Assay in all cases: initial rates, colorimetric 2-naphthylamide release
[1] = substrate: C[C@H](N)C(=O)N[C@@H](CCCNC(=N)N)C(=O)Nc1ccc2ccccc2c1; assay type: biochemical, Physcomitrium patens; conditions: 25 °C, pH 7.4, Tris-HCl (I = 0.01), 75 µM CoCl2, DPP III site
[2] = substrate: N=C(N)NCCC[C@H](NC(=O)[C@@H](N)CCCNC(=N)N)C(=O)Nc1ccc2ccccc2c1; assay type: biochemical, Physcomitrium patens; conditions: 25 °C, pH 7.4, Tris-HCl (I = 0.01), 75 µM CoCl2, DPP III site
[3] = substrate: N=C(N)NCCC[C@H](NC(=O)[C@@H]1CCCN1)C(=O)Nc1ccc2ccccc2c1; assay type: biochemical, Arabidopsis thaliana; conditions: 25 °C, pH 7.9, Tris-HCl (I = 0.01), 75 µM CoCl2, DPP III site
[4] = substrate: C[C@H](N)C(=O)N[C@@H](CCCNC(=N)N)C(=O)Nc1ccc2ccccc2c1; assay type: biochemical, Arabidopsis thaliana; conditions: 25 °C, pH 7.9, Tris-HCl (I = 0.01), 75 µM CoCl2, DPP III site
[5] = substrate: N=C(N)NCCC[C@H](NC(=O)[C@@H](N)CCCNC(=N)N)C(=O)Nc1ccc2ccccc2c1; assay type: biochemical, Arabidopsis thaliana; conditions: 25 °C, pH 7.9, Tris-HCl (I = 0.01), 75 µM CoCl2, DPP III site

B1: PpND (Physcomitrium patens) (protein)
chain: MEGFQEEFSLGECLDVLTAAGLRTGDVKKRHLVHADGDYHRAVHVWLFVESTQELVLQKRADCKDSWPGLWDISSAGHISAGDTSLLTARRELQEELGITLPADAFEFLFDYLQECVINGGKYINNEYNDVYLVTLVDHIPVEAFTLQETEVSAVKYMKWQDYEDAVRKEDSSYVPCDVDGGYSALFSALRRRYEVDTSAKLEELQMHINRYVPVEIHGETTGLSKGDLLALSDTIRAAKLLDRIFLEQEWATNPALKDSLQAASGKSELDRLKFAYYLINKSPWSILDENDAFLTTADSAIQIAEGAVDESVTWGGKVRYRAAFPVEKAPGANFYPVDMDKEEFQAWKDGLDKGQQADATSFFTTIRRSGDIHDADGAKVHDLKIVPYSKEYATILKEASYLLHKAGDSAENPSLKRLLKAKADAFLSNDYYESDIAWMELDSPLDVTIGPYETYEDGLFGYKATFEAFIGIRDDEATQRLKLFSHNLQEMEDNLPMDDEYKSKTVTFSPIRVIQLLYNSGDVKGPQTVAFNLPNDDRIVKERGTAMVMLKNISQAKFDYILLPIANVCVEASQRGAVDFDSFFTHTICHECCHGIGPHNIVTPDGRASTVRLELQEVYSAIEEAKADIVGLWALHFLVDKGLLPRSLENTMYVSFLAGCFRSIRFGLEEAHGKGQALQFNFILEKGGFSYHPDGTFSVDYTKVRQCVEDLSRLILTIEAKGDKAGAEALLAKYAALTPQLQQSFDALQDVQVPVDIFPTFKLLDDIKL
[1]
  Km: 17.21 ± 0.75 µM
  kcat: 0.0106 ± 0.00262 s⁻¹
[2]
  Km: 10.63 ± 1.72 µM
  kcat: 0.0137 ± 0.003 s⁻¹

B2: AtND (Arabidopsis thaliana) (protein)
chain: MAEEHFDVLTKSGEKTGVSKPRGEVHRDGDYHRAVHVWIFVETTQQLLLQLRSDDKDSWPGQWDISSAGHISAGDTSLLSAQRELEEELGVKLPKDAFEKIFVFLQECVTNDGKFINNEFNDVYLVTILHPIPLEAFTLQKEEVSAVKYVPYEEYRNFLSKEDPAYVPYDVNGEYGKLFDIIRQRCQVNTEARSLSLQKQLQRYSPVTLEAKLTELSEADQKALGLIVKAAKIMDDIFYEQVWNSNPALRDWLKDHANASKLDKLKWDYFTINKSPWSSLDENEAFLSTADSAVKLLPGATKAIAGWKGLEYRAAFPVTKPPGANFYPPDMDKMEFTLWLNGLTEEQKHAATGFFSVIKRRSEANLDASDHLASSTKKLPDSNSDLYSIPYSEIYRPFLKKASEFLQKAGDLVSSPSLKKLLHSKAEAFLSNEYYESDIAWMDLDSKLDITIGPYETYEDEIFGYKATFETFIGIRDDKATADLKLFGDNLKLLEDNLPLESVYKSTDVSAAPIRVIQLIYNSGDVKGPQTVAYNLPNDEKIVKDRGTSMVMLKNVQEAKFEHILKPIAEITISKEQRGLVDFDSFFTHTICHECCHGIGPHTITLPGGQTSTVRKELQEVHSAMEEAKADIVGLWALKFLITKGLLSKSMVESMYVSFLAGCFRSIRFGLTEAHGKGQALQFNYLYEKGAFVFHEDSTFSVDFAKIEGAVESLSHEILTIQGKGDKNAATLLLNKYCTITGPLKTALENLERVKVPVDISPTFPLAEALMN
[3]
  Km: 40.85 ± 12.09 µM
  kcat: 0.0372 ± 0.005 s⁻¹
  kcat/Km: 908 M⁻¹ s⁻¹
[4]
  Km: 5.0 ± 0.3 µM
  kcat: 0.0415 ± 0.0035 s⁻¹
  kcat/Km: 8300 M⁻¹ s⁻¹
[5]
  Km: 3.25 ± 1.12 µM
  kcat: 0.002 ± 1.67e-05 s⁻¹
  kcat/Km: 615 M⁻¹ s⁻¹
